Experimental data published in patent US20100298213A1, “Pharmaceutically Active Insulin Receptor-Modulating Molecules” (Novo Nordisk A/S, priority 2004, published 2010).
Square brackets hold non-standard residues; d marks the D form. Ends that are not written are not given here. Dip = N[C@H](C(=O)O)C(c1ccccc1)c1ccccc1; Aib = CC(C)(N)C(=O)O

Legend:
[1] = molecular target: human IR (HIR) (Homo sapiens, UniProt P06213); experiment: Human IR affinity (Kd); assay type: binding; details: Kd value expressed relative to that of human insulin in the same assay
[2] = system: pepsin, elastase, chymotrypsin, trypsin, and carboxy-peptidase A; experiment: Digestion with digestive enzymes (enzymatic stability); assay type: in vitro ADME
Text: A novel IRBP was derived from S597 by introducing the unusual amino acid residues aminoisobutyric acid and diphenylalanine into the Xaa7 position of the N-terminal Formula 6-like IRBAAS sequence of S597 (in place of Ala) and into the Xaa1 position of the C-terminal Formula 1 sequence (in place of Phe).

[3] = molecular target: RIR −11 (rat insulin receptor, A isoform) (Rattus norvegicus, UniProt P15127); experiment: Binding of IM peptides to IR isoform RIR −11; details: −11 (A) isoform
Text: (§1) A number of IRBPs (S519; S557; S597; S636; S667; S733; S671; S660; S696; S574; S700; S626; and S726), some of which described in the prior patent documents, were applied to A and B isoforms (−11 and +11 isoforms) of the human, rat, and pig insulin receptors (HIR, RIR, and PIR) using standard methods.

[4] = system: PIR +11 (pig insulin receptor, B isoform); experiment: Binding of IM peptides to IR isoform PIR +11; details: +11 (B) isoform
Text: as §1

[5] = system: PIR −11 (pig insulin receptor, A isoform); experiment: Binding of IM peptides to IR isoform PIR −11; details: −11 (A) isoform
Text: as §1

[6] = molecular target: HIR −11 (human insulin receptor, A isoform) (Homo sapiens, UniProt P06213); experiment: Binding of IM peptides to IR isoform HIR −11; details: −11 (A) isoform
Text: as §1

[7] = molecular target: HIR +11 (human insulin receptor, B isoform) (Homo sapiens, UniProt P06213); experiment: Binding of IM peptides to IR isoform HIR +11; details: +11 (B) isoform
Text: as §1

[8] = molecular target: RIR +11 (rat insulin receptor, B isoform) (Rattus norvegicus, UniProt P15127); experiment: Binding of IM peptides to IR isoform RIR +11; details: +11 (B) isoform
Text: as §1

[9] = system: wistar rats; experiment: Blood glucose after administration to wistar rats; assay type: in vivo, rat
Protocol: IRBP S667 was and human insulin were administered to wistar rats (S667 at 1.25 nmol/kg; 2.5 nmol/kg; and 5 nmol/kg; human insulin (HI) at 1.25 nmol/kg) using standard techniques, such as are described in the prior patent documents. Glucose measurements were taken 20 minutes prior to administration, at administration, and 20; 40; 60; 80; 120; and 180 minutes after administration. These measurements are compared in FIG. 3.

[10] = system: mouse adipocytes; experiment: Glucose uptake in mouse adipocytes (FFC); assay type: cell-based; details: for EC50 (FFC) rel. to HI: EC50 value expressed relative to that of human insulin in the same assay; for EC50: concentration needed for half maximal uptake of glucose in mouse adipocytes
[11] = molecular target: T1, human insulin receptor isoform without exon 11 (human, UniProt P06213-2 28-1370, limits assumed); experiment: receptor binding, standard methods (FIG. 2)
T1 construct: also called HIR-11; HIR - 11
Text: as §1

[12] = molecular target: T2, rat insulin receptor isoform without exon 11 (rat, UniProt P15127-2 27-1371, limits assumed); experiment: receptor binding, standard methods (FIG. 2)
T2 construct: also called RIR-11; RIR - 11
T2 sequence (P15127 other isoform, or with tags, fused parts or gaps limits assumed): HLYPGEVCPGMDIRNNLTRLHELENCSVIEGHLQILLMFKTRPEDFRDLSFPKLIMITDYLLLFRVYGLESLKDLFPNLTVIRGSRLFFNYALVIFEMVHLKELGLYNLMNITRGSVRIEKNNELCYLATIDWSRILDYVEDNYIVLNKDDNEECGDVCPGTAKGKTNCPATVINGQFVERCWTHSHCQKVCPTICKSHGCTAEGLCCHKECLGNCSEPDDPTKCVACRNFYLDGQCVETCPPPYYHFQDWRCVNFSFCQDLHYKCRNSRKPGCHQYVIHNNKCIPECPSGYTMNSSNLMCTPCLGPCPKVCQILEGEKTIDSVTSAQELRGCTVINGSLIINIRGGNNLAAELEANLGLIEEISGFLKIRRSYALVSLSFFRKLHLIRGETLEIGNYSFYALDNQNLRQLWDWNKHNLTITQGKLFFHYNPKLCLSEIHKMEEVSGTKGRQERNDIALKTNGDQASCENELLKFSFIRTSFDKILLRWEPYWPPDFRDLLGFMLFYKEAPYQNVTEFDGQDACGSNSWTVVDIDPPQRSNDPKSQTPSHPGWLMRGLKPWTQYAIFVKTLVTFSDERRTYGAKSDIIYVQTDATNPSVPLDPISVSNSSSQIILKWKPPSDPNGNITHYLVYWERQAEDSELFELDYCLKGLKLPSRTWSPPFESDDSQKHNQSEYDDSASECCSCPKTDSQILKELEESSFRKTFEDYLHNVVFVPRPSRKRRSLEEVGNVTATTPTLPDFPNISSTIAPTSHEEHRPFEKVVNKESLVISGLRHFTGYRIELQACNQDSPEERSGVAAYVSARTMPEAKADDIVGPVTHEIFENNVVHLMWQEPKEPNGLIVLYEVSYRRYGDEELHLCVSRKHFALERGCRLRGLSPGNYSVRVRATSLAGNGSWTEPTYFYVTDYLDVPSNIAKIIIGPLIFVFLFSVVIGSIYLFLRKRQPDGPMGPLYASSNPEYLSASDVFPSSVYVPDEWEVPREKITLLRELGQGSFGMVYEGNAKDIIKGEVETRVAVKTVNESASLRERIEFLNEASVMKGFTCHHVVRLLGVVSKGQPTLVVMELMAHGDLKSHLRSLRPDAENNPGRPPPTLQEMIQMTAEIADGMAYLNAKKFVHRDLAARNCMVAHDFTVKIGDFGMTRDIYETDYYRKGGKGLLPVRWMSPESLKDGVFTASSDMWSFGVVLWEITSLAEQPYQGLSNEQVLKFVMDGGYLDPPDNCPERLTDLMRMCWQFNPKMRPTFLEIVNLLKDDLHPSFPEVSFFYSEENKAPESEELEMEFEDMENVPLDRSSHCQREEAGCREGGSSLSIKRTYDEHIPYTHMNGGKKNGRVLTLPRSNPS
Text: as §1

[13] = molecular target: T3, pig insulin receptor isoform without exon 11 (pig, UniProt F1SCK8 28-746; F1SCK8 751-1370); experiment: receptor binding, standard methods (FIG. 2)
T3 construct: also called PIR-11; PIR - 11
T3 sequence (alpha, as listed by the source limits assumed, stated change not applied, form in doubt, chain 1 of 2): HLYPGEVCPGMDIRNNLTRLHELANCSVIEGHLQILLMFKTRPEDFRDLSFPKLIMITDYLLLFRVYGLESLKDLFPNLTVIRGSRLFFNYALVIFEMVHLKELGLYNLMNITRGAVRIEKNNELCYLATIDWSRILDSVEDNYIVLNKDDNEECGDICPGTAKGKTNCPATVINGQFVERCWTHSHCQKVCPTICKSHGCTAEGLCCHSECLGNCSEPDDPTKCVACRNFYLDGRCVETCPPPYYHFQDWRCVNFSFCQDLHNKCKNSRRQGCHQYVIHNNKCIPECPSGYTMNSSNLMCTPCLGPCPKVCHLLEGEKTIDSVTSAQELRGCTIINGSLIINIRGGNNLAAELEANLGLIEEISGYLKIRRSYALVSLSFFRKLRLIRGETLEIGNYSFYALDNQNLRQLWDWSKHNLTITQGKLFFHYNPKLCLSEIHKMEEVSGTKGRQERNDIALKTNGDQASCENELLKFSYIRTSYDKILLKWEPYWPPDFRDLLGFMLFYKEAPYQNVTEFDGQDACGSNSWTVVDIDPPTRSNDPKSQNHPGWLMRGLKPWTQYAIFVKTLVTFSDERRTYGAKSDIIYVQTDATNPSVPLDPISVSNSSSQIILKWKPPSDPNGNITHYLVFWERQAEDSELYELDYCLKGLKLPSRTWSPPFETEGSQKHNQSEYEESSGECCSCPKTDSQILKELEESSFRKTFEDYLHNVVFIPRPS
T3 sequence (beta, as listed by the source limits assumed, stated change not applied, form in doubt, chain 2 of 2): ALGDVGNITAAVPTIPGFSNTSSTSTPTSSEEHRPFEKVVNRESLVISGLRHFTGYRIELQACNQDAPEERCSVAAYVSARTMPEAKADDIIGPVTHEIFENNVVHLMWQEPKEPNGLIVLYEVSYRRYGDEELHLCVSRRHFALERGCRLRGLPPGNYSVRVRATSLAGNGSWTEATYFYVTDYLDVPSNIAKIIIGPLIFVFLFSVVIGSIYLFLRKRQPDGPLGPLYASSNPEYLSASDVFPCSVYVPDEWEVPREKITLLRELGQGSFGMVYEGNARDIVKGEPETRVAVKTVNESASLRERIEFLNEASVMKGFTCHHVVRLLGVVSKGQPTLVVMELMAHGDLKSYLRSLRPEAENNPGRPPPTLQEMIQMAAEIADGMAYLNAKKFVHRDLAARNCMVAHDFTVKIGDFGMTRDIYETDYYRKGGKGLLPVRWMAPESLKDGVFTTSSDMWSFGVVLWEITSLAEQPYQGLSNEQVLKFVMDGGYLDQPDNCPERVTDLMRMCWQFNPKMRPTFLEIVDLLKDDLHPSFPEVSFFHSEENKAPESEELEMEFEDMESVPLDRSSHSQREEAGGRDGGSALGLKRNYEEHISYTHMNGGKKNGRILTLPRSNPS
Text: as §1

[14] = molecular target: T4, pig insulin receptor isoform with exon 11 (pig, UniProt F1SCL0 28-758; F1SCL0 763-1382); experiment: receptor binding, standard methods (FIG. 2)
T4 construct: also called PIR+11; PIR + 11
T4 sequence (alpha, as listed by the source limits assumed, stated change not applied, form in doubt, chain 1 of 2): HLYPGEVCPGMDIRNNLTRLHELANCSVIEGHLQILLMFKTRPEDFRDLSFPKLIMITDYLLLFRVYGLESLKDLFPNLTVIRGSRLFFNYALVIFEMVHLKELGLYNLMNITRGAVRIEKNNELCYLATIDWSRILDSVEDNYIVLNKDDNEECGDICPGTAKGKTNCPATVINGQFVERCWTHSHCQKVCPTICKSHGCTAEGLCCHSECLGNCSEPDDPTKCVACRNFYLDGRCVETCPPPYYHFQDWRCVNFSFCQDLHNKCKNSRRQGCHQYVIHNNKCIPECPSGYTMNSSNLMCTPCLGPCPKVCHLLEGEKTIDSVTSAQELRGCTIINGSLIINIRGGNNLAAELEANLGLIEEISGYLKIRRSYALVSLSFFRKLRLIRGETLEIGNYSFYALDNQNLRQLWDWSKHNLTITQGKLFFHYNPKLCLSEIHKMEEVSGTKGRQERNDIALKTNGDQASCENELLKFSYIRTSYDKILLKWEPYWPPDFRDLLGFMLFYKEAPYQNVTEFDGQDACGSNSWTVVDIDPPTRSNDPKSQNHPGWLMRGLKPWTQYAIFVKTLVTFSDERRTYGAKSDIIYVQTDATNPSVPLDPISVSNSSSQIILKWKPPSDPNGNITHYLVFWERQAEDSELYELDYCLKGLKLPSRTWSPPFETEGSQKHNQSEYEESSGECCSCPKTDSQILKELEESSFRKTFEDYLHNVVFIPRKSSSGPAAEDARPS
T4 sequence (beta, as listed by the source limits assumed, stated change not applied, form in doubt, chain 2 of 2): as the sequence (beta, as listed by the source limits assumed, stated change not applied, form in doubt, chain 2 of 2) above
Text: as §1

[15] = molecular target: insulin receptor on mouse adipocytes (mouse, UniProt P15208 28-1372); experiment: cell-based or functional assay
[16] = molecular target: human insulin receptor isoform with exon 11 (human) (UniProt P06213); experiment: receptor binding, standard methods (FIG. 2)
[17] = molecular target: rat insulin receptor isoform with exon 11 (rat) (UniProt P15127); experiment: receptor binding, standard methods (FIG. 2)

| Molecule | relative affinity HIR +11 [7] | relative affinity RIR +11 [8] | relative affinity [11] | relative affinity [12] | relative affinity [13] | relative affinity [14] | EC50 (FFC) [15] | EC50 (FFC) rel. to HI [15] | relative affinity [16] | relative affinity [17] | further results |
| --- | --- | --- | --- | --- | --- | --- | --- | --- | --- | --- | --- |
| Ac-SLEEEW-Aib-QIQCEVWGRPCPSEP-Dip-YGWFHEQLGPP (Ac-SLEEEW[Aib]QIQCEVWGRPCPSEP[Dip]YGWFHEQLGPP; cysteine pairing not given here) [compound 873] |  |  |  |  |  |  |  |  |  |  | Kd (HIR) rel. to HI [1]: 20%; stabilization towards all of the relevant enzymes as compared to S597 [2]: greater than 100 fold |
| Ac-SLE-Aib-EW-Aib-QIQCEVWGRGCPSESFYDWFERQL [compound 663] |  |  |  |  |  |  |  |  |  |  | EC50 (FFC) rel. to HI [10]: 15%; EC50 [10]: 0.43 nM |
| GSLDESFYDWFERQLG-(pox)2-SLEEEWAQIQCEVWGRGCPSY [compound 675] |  |  |  |  |  |  |  |  |  |  | EC50 (FFC) rel. to HI [10]: 25%; EC50 [10]: 0.26 nM |
| SLEEEWAQIECEVYGRGCPSVRGFQGGTVWPGYEWLRNAAKK [S626] |  |  | 59 | 11 | 1 | 3 | 9.7 nM | 0.4% | 78 | 12 |  |
| Ac-SLEEEWAQIECEVWGRGCPSEGFYNAIELLS (cysteine pairing not given here) [S726] |  |  | 83 | 13 | 1.3 | 5.9 | 19 nM | 0.3% | 121 | 7.7 |  |
| SLEEEWAQIEAEVWGRGAPSESFYDWFERQLG [S574] |  |  | 8.3 | 0.9 | 0.2 | 0.4 |  |  | 8.2 | 2 |  |
| Ac-SLEEEWAQIQCEVWGRGCPSESFYGWFERQLG (cysteine pairing not given here) [S733] |  |  | 281 | 179 | 111 | 228 | 0.12 nM | 61% | 290 | 211 |  |
| Ac-SLEEEWAQIQCEVWGRGCPSESFYDWFERQL (cysteine pairing not given here) [S636] |  |  | 106 | 50 | 32 | 68 | 0.056 nM | 98% | 117 | 79 |  |
| SLEEEWAQVECEVYERGCPSESFYDWFERQL [S696] |  |  | 3.3 | 0.3 | 0.3 | 0.8 | 870 nM |  | 3.1 | 0.2 |  |
| Ac-SLEEEWAQIQCEVWGRGCPSESFYGWFERQL (cysteine pairing not given here) [S667] |  |  | 111 | 44 | 47 | 84 | 0.21 nM | 31% | 127 | 112 |  |
| {MeO‑PEG5000}-SLEEEWAQIECEVYGRGCPSESFYDWFERQL (cysteine pairing not given here) [S660] |  |  | 52 | 6.5 | 5.5 | 12 | 2 nM | 3.3% | 58 | 9 |  |

More lines, main results first:

| relative affinity HIR +11 [7] | relative affinity RIR +11 [8] | relative affinity [11] | relative affinity [12] | relative affinity [13] | relative affinity [14] | EC50 (FFC) [15] | EC50 (FFC) rel. to HI [15] | relative affinity [16] | relative affinity [17] | Molecule | further results |
| --- | --- | --- | --- | --- | --- | --- | --- | --- | --- | --- | --- |
| 53 | 13 |  |  |  |  |  |  |  |  | SLEEEWAQIQEEVWGRGEPSESFYDWFERQL [compound 700] | relative affinity RIR −11 [3]: 10; relative affinity PIR +11 [4]: 4.3; relative affinity PIR −11 [5]: 1.4; relative affinity HIR −11 [6]: 70 |
| 117 | 79 |  |  |  |  |  |  |  |  | SLEEEWAQIQCEVWGRGCPSESFYDWFERQL [compound 636] |  |
|  | 9 |  |  |  |  |  |  |  |  | MeO-PEG5000-SLEEEWAQIECEVYGRGCPSESFYDWFERQL ({MeO‑PEG5000}-SLEEEWAQIECEVYGRGCPSESFYDWFERQL; cysteine pairing not given here) [compound 660] |  |
| 127 | 112 |  |  |  |  |  |  |  |  | SLEEEWAQIQCEVWGRGCPSESFYGWFERQL [compound 667] | dose dependence of glucose level modulation ([9]; 1.25, 2.5, 5 nmol/kg): dose-dependent IR-mediated glucose level modulation; blood glucose lowering compared with human insulin ([9]; S667 1.25, 2.5, 5 nmol/kg, HI 1.25 nmol/kg, up to 180 minutes): lower blood glucose to levels similar to human insulin at similar dosages |
| 121 | 7.7 |  |  |  |  |  |  |  |  | SLEEEWAQIECEVWGRGCPSEGFYNAIELLS [compound 726] |  |
| 78 | 12 |  |  |  |  |  |  |  |  | SLEEEWAQIECEVYGRGCPSVRGFQGGTVWPGYEWLRNAAKK [compound 626] |  |
| 3.1 | 0.2 |  |  |  |  |  |  |  |  | SLEEEWAQVECEVYERGCPSESFYDWFERQL [compound 696] |  |
| 8.2 | 2 |  |  |  |  |  |  |  |  | SLEEEWAQIEAEVWGRGAPSESFYDWFERQLG [S574] |  |
| 290 | 211 |  |  |  |  |  |  |  |  | SLEEEWAQIQCEVWGRGCPSESFYGWFERQLG [compound 733] |  |
